# Data: ChEMBL document CHEMBL1121725, “Interaction of 1-(5-phospho-beta-D-arabinofuranosyl)-5-substituted-uracils with thymidylate synthetase: mechanism-based inhibition by 1-(5-phospho-beta-D-arabinosyl)-5-fluorouracil” (J Med Chem, 1981)
# Target: thymidylate synthase (Lactobacillus casei)
# Assay: Compound was evaluated for the inhibition of dTMP synthetase with respect to dUMP.
protein,measurement,value
"Thymidylate synthase (Escherichia coli), C3SWJ7 (protein) MKQYLELMQKVLDEGTQKNDRTGTGTLSIFGHQMRFNLQDGFPLVTTKRCHLRSIIHELLWFLQGDTNIAYLHENNVTIWDEWADENGDLGPVYGKQWRAWPTPDGRHIDQITTVLNQLKNDPDSRRIIVSAWNVGELDKMALAPCHAFFQFYVADGKLSCQLYQRSCDVFLGLPFNIASYALLVHMMAQQCDLEVGDFVWIGGDTHLYSNHMDQTHLQLSREPRPLPKLIIKRKPESIFDYRFEDFEIEGYDPHPGIKAPVAI",Km,2 µM
